The supplement of paper PMC7877785
± gives the uncertainty stated by the source.

Assay: self-splicing fitness, log relative to wild type (ln ratio); higher = more splicing; Tetrahymena group I intron in knt gene, E. coli kanamycin selection, DiMSum; sequences stand for … in CUCUCU…GGAGGGAAAAGUUAUCAGGCAUGCACCUGGUAGCUAGUCUUUAAACCAAUAGAUUGCAUCGGUUUAAAAGGCAAGACCGUCAAAUUGCGGGAAAGGGGUCAACAGCCGUUCAGUACCAAGUCUCAGGGGAAACUUUGAGAUGGCCUUGCAAAGGGUAUGGUAAUAAGCUGACGGACAUGGUCCUAACCACGCAGCCAAGUCCUAAGUCAACAGAUCUUCUGUUGAUAUGGAUGCAGUUCACAGACUAAAUGUCGGUCGGGGAAGAUGUAUUCUUCUCAUAAGAUAUAGUCGGACCUCUCCUUAAUGGGAGCUAGCGGAUGAAGUGAUGCAACACUGGAGCCGCUGGGAACUAAUUUGUAUGCGAAAGUAUAUUGAUUAGUUUUGGAGUACUCGUGGUCG
Method in brief: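 DiMSum derived fitness as the error-weighted combination of fold changes across replicates, kanamycin versus no kanamycin, normalised to wild type. E. coli BL21(DE3) held the library, which randomised all eight P1ex-region intron nucleotides within the knt kanamycin-resistance gene on pET-22b(+). Six replicate transformations grew overnight at 37°C or 30°C on LB agar with or without 25 μg/mL kanamycin, also containing 100 μg/mL carbenicillin, 50 μM IPTG and 0.2% rhamnose, and pooled colonies were amplicon-sequenced on an Illumina HiSeq 2500.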

Row | Sequence | self-splicing fitness (ln) (30 °C) | self-splicing fitness (ln) (37 °C)
1 | CGGAAGCAAUAUUACGAUUA | -1.17 ± 0.18 | -1.56 ± 0.16
2 | CGGAAGCAAUAUUACGCAAG | -0.584 ± 0.18 | -1.95 ± 0.43
3 | CGGAAGCAAUAUUACGCACC | -2.4 ± 0.32 | -1.19 ± 0.27
4 | CGGAAGCAAUAUUACGCCUU | -3.2 ± 0.17 | -3.48 ± 0.3
5 | CGGAAGCAAUAUUACGCGAA | -2.86 ± 0.27 | -1.46 ± 0.32
6 | CGGAAGCAAUAUUACGCGUA | -2.96 ± 0.29 | -2.47 ± 0.25
7 | CGGAAGCAAUAUUACGCUCA | -1.59 ± 0.17 | 0.105 ± 0.18
8 | CGGAAGCAAUAUUACGCUGC | -2.35 ± 0.41 | -1.78 ± 0.2
9 | CGGAAGCAAUAUUACGGAAC | -2.23 ± 0.34 | 
10 | CGGAAGCAAUAUUACGGGCG | -0.796 ± 0.091 | -0.481 ± 0.12
11 | CGGAAGCAAUAUUACGGUAG | -0.312 ± 0.072 | -0.214 ± 0.096
12 | CGGAAGCAAUAUUACGUAAC |  | -2.71 ± 0.27
13 | CGGAAGCAAUAUUACGUGGA | -2.79 ± 0.14 | -2.93 ± 0.21
14 | CGGCAGCAAUAUUACGAGAU | -1.99 ± 0.19 | -2.81 ± 0.27
15 | CGGCAGCAAUAUUACGAGUG | -1.03 ± 0.086 | 0.319 ± 0.1
16 | CGGCAGCAAUAUUACGCCGA | -2.87 ± 0.29 | -2.76 ± 0.34
17 | CGGCAGCAAUAUUACGCGGU | -4.26 ± 0.25 | -3.33 ± 0.19
18 | CGGCAGCAAUAUUACGCUGC | -3.47 ± 0.32 | -1.5 ± 0.19
19 | CGGCAGCAAUAUUACGGAGA | -1.63 ± 0.3 | -1.62 ± 0.29
20 | CGGCAGCAAUAUUACGGCCU | -1.23 ± 0.092 | -0.41 ± 0.088
21 | CGGCAGCAAUAUUACGGGAA | -2.49 ± 0.15 | -1.97 ± 0.16
22 | CGGCAGCAAUAUUACGGGCG | -1.85 ± 0.13 | -0.898 ± 0.14
23 | CGGCAGCAAUAUUACGGUUU | -2.16 ± 0.077 | -0.769 ± 0.089
24 | CGGCAGCAAUAUUACGUAAU | -3.38 ± 0.18 | -1.69 ± 0.22
25 | CGGCAGCAAUAUUACGUACC | -2.07 ± 0.19 | -1.61 ± 0.25
26 | CGGCAGCAAUAUUACGUCAG | -2.04 ± 0.099 | -0.000984 ± 0.1
27 | CGGCAGCAAUAUUACGUCUG | -2.32 ± 0.21 | -1.86 ± 0.19

Row | Sequence | self-splicing fitness (ln) (30 °C) | self-splicing fitness (ln) (37 °C)
28 | CGGCAGCAAUAUUACGUUCC | -2.59 ± 0.14 | -1.77 ± 0.21
29 | CGGGAGCAAUAUUACGAACA |  | -1.37 ± 0.22
30 | CGGGAGCAAUAUUACGAAUG | -3.6 ± 0.21 | -1.1 ± 0.15
31 | CGGGAGCAAUAUUACGACUG | -3.19 ± 0.22 | -1.55 ± 0.18
32 | CGGGAGCAAUAUUACGAUGC | -3.44 ± 0.2 | -2.91 ± 0.4
33 | CGGGAGCAAUAUUACGAUUA |  | -3.69 ± 0.42
34 | CGGGAGCAAUAUUACGCCUA | -2.84 ± 0.27 | -2.14 ± 0.19
35 | CGGGAGCAAUAUUACGCUUC |  | -2.21 ± 0.31
36 | CGGGAGCAAUAUUACGCUUG |  | -2.34 ± 0.31
37 | CGGGAGCAAUAUUACGUCUC | -2.33 ± 0.24 | 
38 | CGGGAGCAAUAUUACGUUUU | -2.19 ± 0.18 | -1.53 ± 0.27
39 | CGGUAGCAAUAUUACGAACA | -0.899 ± 0.16 | -0.395 ± 0.2
40 | CGGUAGCAAUAUUACGAAUA | -2.04 ± 0.35 | -1.67 ± 0.3
41 | CGGUAGCAAUAUUACGACAG | -0.475 ± 0.15 | 0.021 ± 0.16
42 | CGGUAGCAAUAUUACGACGU | -1.76 ± 0.13 | -1.08 ± 0.17
43 | CGGUAGCAAUAUUACGAGCA | -3.2 ± 0.31 | -0.781 ± 0.17
44 | CGGUAGCAAUAUUACGAGCU | -2.4 ± 0.15 | -1.89 ± 0.2
45 | CGGUAGCAAUAUUACGAGGC |  | -0.808 ± 0.29
46 | CGGUAGCAAUAUUACGAGUG | -0.671 ± 0.098 | 0.142 ± 0.17
47 | CGGUAGCAAUAUUACGAUCG | -2.68 ± 0.22 | -2.27 ± 0.32
48 | CGGUAGCAAUAUUACGAUUG | -0.538 ± 0.073 | -0.0537 ± 0.095
49 | CGGUAGCAAUAUUACGCAAC |  | -1.42 ± 0.35
50 | CGGUAGCAAUAUUACGCACU | -1.64 ± 0.26 | 0.00723 ± 0.27
51 | CGGUAGCAAUAUUACGCAUG | -0.808 ± 0.069 | 0.339 ± 0.08
52 | CGGUAGCAAUAUUACGCUGA | -2.23 ± 0.21 | -0.951 ± 0.2
53 | CGGUAGCAAUAUUACGGACU | -1.25 ± 0.16 | -0.871 ± 0.2
54 | CGGUAGCAAUAUUACGGCAG | -0.164 ± 0.13 | 0.767 ± 0.16

Row | Sequence | self-splicing fitness (ln) (30 °C) | self-splicing fitness (ln) (37 °C)
55 | CGGUAGCAAUAUUACGGCGU | -2.03 ± 0.14 | -0.594 ± 0.13
56 | CGGUAGCAAUAUUACGGGGG | -3.21 ± 0.22 | -3.01 ± 0.43
57 | CGGUAGCAAUAUUACGGGUA | -2.65 ± 0.21 | -3.01 ± 0.28
58 | CGGUAGCAAUAUUACGGUAU | -3.77 ± 0.22 | -2.31 ± 0.22
59 | CGGUAGCAAUAUUACGGUUG | -0.837 ± 0.069 | -0.0229 ± 0.093
60 | CGGUAGCAAUAUUACGUAAG | 0.00223 ± 0.095 | 0.329 ± 0.11
61 | CGGUAGCAAUAUUACGUACC | -3.27 ± 0.4 | -1.89 ± 0.3
62 | CGGUAGCAAUAUUACGUAGA | -1.73 ± 0.053 | -1.89 ± 0.082
63 | CGGUAGCAAUAUUACGUAGC | -3.25 ± 0.2 | -3.13 ± 0.27
64 | CGGUAGCAAUAUUACGUAGU | -2.59 ± 0.13 | -1.34 ± 0.16
65 | CGGUAGCAAUAUUACGUCGU | -3.85 ± 0.22 | -2.02 ± 0.24
66 | CGGUAGCAAUAUUACGUGCU | -3.24 ± 0.28 | -2.51 ± 0.29
67 | CGUAAGCAAUAUUACGACAU | -3.255 ± 0.022 | -1.8 ± 0.035
68 | CGUAAGCAAUAUUACGAGGU | -3.63 ± 0.46 | -1.71 ± 0.29
69 | CGUAAGCAAUAUUACGAUGG | -1.37 ± 0.097 | -0.574 ± 0.13
70 | CGUAAGCAAUAUUACGAUGU |  | -1.57 ± 0.16
71 | CGUAAGCAAUAUUACGAUUC | -3 ± 0.13 | -2.52 ± 0.16
72 | CGUAAGCAAUAUUACGCAGC |  | -2.3 ± 0.39
73 | CGUAAGCAAUAUUACGCCAA | -3.24 ± 0.33 | -1.91 ± 0.4
74 | CGUAAGCAAUAUUACGCUCA | -1.2 ± 0.2 | -0.106 ± 0.18
75 | CGUAAGCAAUAUUACGCUGC |  | -2.3 ± 0.39
76 | CGUAAGCAAUAUUACGGACG | -2.45 ± 0.12 | -1.89 ± 0.14
77 | CGUAAGCAAUAUUACGGAUC | -3.4 ± 0.23 | -3.44 ± 0.37
78 | CGUAAGCAAUAUUACGGCCA | -2.86 ± 0.42 | -1.74 ± 0.21
79 | CGUAAGCAAUAUUACGGGAU | -3.63 ± 0.18 | -3.29 ± 0.35
80 | CGUAAGCAAUAUUACGGGUC | -4.24 ± 0.28 | -2.45 ± 0.2
